Eight molecules from patent US20240182593A1 (YUHAN, published 2024) can be followed below.

To fix the notation:
T1: human OX40 protein (Sino Biological, Cat. 10481-H08H) (human, UniProt P43489 29-216)
T1 construct: Bought recombinant protein; also called CD134; TNFRSF4
T1 sequence (looked up): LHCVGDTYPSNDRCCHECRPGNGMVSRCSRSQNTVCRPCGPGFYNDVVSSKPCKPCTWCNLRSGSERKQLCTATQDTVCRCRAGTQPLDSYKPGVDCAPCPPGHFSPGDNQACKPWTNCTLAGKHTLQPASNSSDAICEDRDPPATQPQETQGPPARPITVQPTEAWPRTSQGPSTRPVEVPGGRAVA

T2: mouse OX40 (ACRO, Cat. OX0-M5259) (mouse, UniProt P47741 20-211)
T2 construct: Bought protein; construct not described; also called mouse OX40 antigen
T2 sequence (looked up): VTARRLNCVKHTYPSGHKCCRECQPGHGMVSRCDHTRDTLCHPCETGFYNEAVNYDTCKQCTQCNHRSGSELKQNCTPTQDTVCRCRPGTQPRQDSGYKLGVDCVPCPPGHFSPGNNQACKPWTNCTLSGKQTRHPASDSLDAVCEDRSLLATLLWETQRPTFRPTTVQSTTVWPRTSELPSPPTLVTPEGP

T3: human OX40 expressed on cells (human, UniProt P43489 29-277)
T3 construct: whole, on cells
T3 sequence (looked up): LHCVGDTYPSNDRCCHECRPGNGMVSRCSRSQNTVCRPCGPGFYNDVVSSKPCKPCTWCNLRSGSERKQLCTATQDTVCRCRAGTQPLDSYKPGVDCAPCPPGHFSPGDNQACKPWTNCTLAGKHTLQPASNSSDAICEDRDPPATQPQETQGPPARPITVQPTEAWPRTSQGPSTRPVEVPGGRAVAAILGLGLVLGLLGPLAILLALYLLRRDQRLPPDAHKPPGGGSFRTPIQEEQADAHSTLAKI

B1: O31C (antibody, human IgG1, lambda, V domains shown)
VH: EVQLLESGGGLVQPGGSLRLSCAASGFTFSDYDMSWVRQAPGKGLEWVSSISPSSGSIYYADSVKGRFTISRDNSKNTLYLQMNSLRAEDTAVYYCAKDSIWCTNSRCYYDNAMDVWGQGTLVTVSS
VL: QSVLTQPPSASGTPGQRVTISCSGSSSNIGNNAVSWYQQLPGTAPKLLIYSDSNRPSGVPDRFSGSKSGTSASLAISGLRSEDEADYYCGSWDYSLSAYVFGGGTKLTVLG
B2: O410 (antibody, human IgG1, lambda, V domains shown)
VH: EVQLLESGGGLVQPGGSLRLSCAASGFTFSDYYMSWVRQAPGKGLEWVSGIYSDGSRKYYADSVKGRFTISRDNSKNTLYLQMNSLRAEDTAVYYCARHWSRFDYWGQGTLVTVSS
VL: B1 VL with N31S, A33Y, S35T, G42R, S51Y, S91A, Y94D, A98G
B3: O15 (antibody, V domains shown)
VH: B2 VH with D31S, Y33S, G50M, Y52S, D54G, S56G, R57S, K58T, S101R, R102Y
VL: B1 VL with A33Y, S51A, N54K, S91A, Y94S, A98G
B4: O34 (antibody, V domains shown)
VH: B2 VH with Y52S, D54S, S56G, R57N, S101K
VL: B1 VL with S23T, S25P, A33D, S51A, D52N, P60S, S91T, A98G, F101L
B5: O32 (antibody, V domains shown)
VH: B2 VH with D31S, Y33S, G50V, Y52S, D54G, S56G, R57S, K58T, S101R, R102Y
VL: B1 VL with A33Y, S51A, N54K, S91A, Y94S, A98G
B6: O35 (antibody, V domains shown)
VH: B2 VH with Y33S, G50A, Y52S, S56G, R57S, K58T, H99R, S101Q, R102T
VL: B1 VL with S23T, N31S, S51H, N54H, R55P, S91A, Y94S, A98G
B7: OX40L-Fc protein (ACROBiosystems, Cat #. OX0-H5255) (Fc fusion, UniProt P23510 51-183, looked up)
chain: QVSHRYPRIQSIKVQFTEYKKEKGFILTSQKEDEIMKVQNNSVIINCDGFYLISLKGYFSQEVNISLHYQKDEEPLFQLKKVRSVNSLMVASLTYKDKVYLNVTTDNTSLDDFHVNGGELILIHQNPGEFCVL
notes: Bought; not shown: Fc part of the bought fusion protein
B8: O212 (antibody, V domains shown)
VH: EVQLLESGGGLVQPGGSLRLSCAASGFTFSDYAMSWVRQAPGKGLEWVSWIYYDSGSKYYADSVKGRFTISRDNSKNTLYLQMNSLRAEDTAVYYCAKGPGPNGQLAFDYWGQGTLVTVSS
VL: B1 VL with S23T, N31S, A33S, S51A, D52N, N54H, S91A, A98G
notes: also called O212 antibody

What is called EC50 (read off the curve) is the concentration at which the effect is half-maximal. For orientation: koff means a measure of how fast the partners let go of each other. Usually EC50 stands for the concentration needed to bring the measured effect to its halfway point. As usually defined, the Kd is the constant that tells how readily two partners part at equilibrium. As usually defined, the kon is a measure of how fast the partners come together.

Numbering of substitutions follows the chain as printed. Names may count otherwise.

In one assay the target is T1, human OX40 protein (Sino Biological, …). In words: ELISA, human OX40 protein coated at 0.1 ug/ml, serially diluted antibody, HRP secondary antibody, O.D. 450 nm. The protocol: (§1) ELISA was performed to quantitatively analyze the antigen-binding activity of the OX40-binding antibody prepared in Example 1.3 to the antigen.
(§2) More specifically, the antigen human OX40 protein (Sino Biological, Cat. 10481-H08H) was added to a 96-well plate (Thermo Scientific, Cat. 469949) at a concentration of 0.1 μg/ml, and coated overnight at 4° C. Here, 200 μl of 3% BSA (Millipore, Cat. 820451) was placed in each well and blocked at room temperature for 2 hours. The OX40-binding antibody (Example 1.3) serially diluted 4-fold from 100 nM was added thereto and reacted at room temperature for 2 hours. After washing 4 times with 300 μl of PBS/Tween-20, HRP-bound secondary antibody (Abcam, Cat. Ab98624) was treated and reacted at room temperature for 1 hour. Then, it was washed 4 times with 300 μl of PBS/Tween-20. Following 100 μl of TMB was added thereto to develop color, 100 μl of 2 N H₂SO₄ was added to stop the reaction. The absorbance was measured at 450 nm using a microplate reader (Perkin Elmer, Victor X5).
A general note: In an ELISA, binding on a coated surface is turned into a signal by an enzyme label.
As for B1, the “EC50 (read off the curve)” value was around 0.03 nM.

The target in a further assay is T2, mouse OX40 (ACRO, Cat. OX0-M5259). Description: ELISA, mouse OX40 coated at 0.5 ug/ml, serially diluted antibody, goat anti-human Fab secondary antibody, O.D. 450 nm. The procedure:
(§3) To determine the cross-species reactivity of anti-OX40 antibodies to mouse and cynomolgus (Cyno) monkey OX40, mouse OX40 (ACRO, Cat. OX0-M5259) and cynomolgus monkey OX40 (R&D, Cat. 10311-OX) antigens were coated on a 96-well plate at a concentration of 0.5 μg/ml, and the plate was incubated overnight at 4° C. After blocking using 3% BSA, serially diluted OX40 antibodies were treated and incubated for 1 hour at room temperature. Goat anti-human Fab (Jackson ImmunoResearch, Cat. 109-036-097) was diluted 1: 5000 and used as a secondary antibody for detection. Absorbance at 450 nm was read using a microplate reader (Molecular Device). To determine EC50 values for dose-dependent binding of OX40 binding antibodies in mice and cynomolgus monkeys, dose-response data were analyzed using a 4-parameter logistic model with GraphPad Prism.
On to B2, for which the binding result was “no binding (tested: about 25000 pM)”.

The target of the next assay is T1, human OX40 protein (Sino Biological, …). Description: ELISA, human OX40 protein coated at 0.1 ug/ml, antibody diluted 4-fold from 100 nM, HRP secondary antibody, O.D. 450 nm. The protocol:
as §1, §2
With B3, the “EC50 (read off the curve)” value was around 0.2 nM.
Same read-out and setting: in the case of B4 it was around 0.005 nM; in that of B2, around 0.03 nM; in that of B5, around 0.001 nM.
On the same count and under the same terms, in the case of B6 it was around 0.006 nM.

The next assay shares this target. Description: SPR (BIACORE T200), same test as for the antibodies (capture on protein A chip, human OX40 as analyte), 1:1 model. The protocol: (§4) Quantitative analysis of antigen binding of the OX40-binding antibody prepared in Example 1.3 was performed using a BIACORE T200. The experimental conditions using surface plasmon resonance (SPR) were as follows: Protein A-immobilized CM5 chip (GE Healthcare) was used. 10 mM Glycine-HCl (pH 1.5) was used as the regeneration buffer, and HBS-EP (pH 7.4) was used as the running buffer, antibody dilution, and antigen dilution buffer. OX40-binding antibody was diluted with HBS-EP (pH 7.4), and human OX40 protein (Sino Biological, Cat. 10481-H08H) was serially diluted two-fold from 200 nM. Analysis was performed at all 11 concentrations (200, 100, 50, 25, 12.5, 6.25, 3.13, 1.56, 0.78, 0.39, 0 nM) including 0 nM. First, the OX40-binding antibody was captured on a chip immobilized with protein A (Thermo, Cat. 21184). In the association phase of human OX40 protein, the association time was set to 400-600 seconds and the flow rate was set to 30 μL/min. In the dissociation phase, the dissociation time was set to 400-2000 seconds and the flow rate was set to 30 μL/min. In the regeneration phase, the flow rate was set to 100 μL/min, and the flow time was set to 30 seconds. By using BIACORE Evaluation software, the data were analyzed and fitted in a 1:1 binding model.
For orientation: In SPR one partner is held on a chip, and binding of the other changes the refractive index at the surface.
Turning to B7, the dissociation rate constant (koff) turned out to be 0.00119 s⁻¹.

The target of a further assay is T3, human OX40 expressed on cells. In words: flow cytometry on activated human CD4+ T cells. The procedure: (§5) The activity of the OX40-binding antibody prepared in Example 1.3 to bind to activated human T cells was tested as follows.
(§6) To induce OX40 expression, cells were activated for several days prior to the binding assay. Briefly, human CD4⁺ T cells ([…] Technologies) were cultured in the presence of IL-2 (Roche Life Sciences, Indianapolis, IN) and phytohemaglutinin-leucoagglutinin (PHA-L; Roche Life Sciences, Indianapolis, IN) at a concentration of 10 μg/ml for 2 days to activate the human CD4⁺ T cells. The activated CD4⁺ T cells were incubated with OX40-binding antibody serially diluted 5-fold from 1 μM. The bound antibody was detected with a fluorescently labeled anti-human IgG polyclonal secondary antibody, and cells were stained with FITC mouse anti-human CD134 (OX40) antibody clone ACT35 (BD Pharmingen) to detect CD4⁺ T cells expressing OX40. Fluorescence intensity of staining was measured using a BD FACSCantoII flow cytometry analyzer. Mean fluorescence intensity (MFI) of OX40-binding antibody staining was calculated using FlowJo software.
A general note: In flow cytometry, cells or beads pass a laser one at a time.
Molecule B3 displayed an EC50 of 2.65 nM.
Same read-out and setting: in the case of B4 it was 0.182 nM; in that of B8, 2.17 nM; in that of B2, 0.253 nM.
The same measure, in the same setting: next, B5: 0.102 nM.
Still for that read-out and setting: in the case of B6 it was 1.22 nM.

The next assay has the same target. In words: flow cytometry on activated human CD4+ T cells, fitted MFI curve. The procedure:
as §5, §6
In turn, B3 yielded a Bottom of 7.36 and a Top of 102.
For B4, the Bottom was found to be 5.77 and the Top was found to be 99.9.
For the molecule B8, the Bottom amounted to 5.53 and the Top turned out to be 99.4.
In the same order, the values of B2 are 1.04 and 95.9.
In the same order, the values of B5 are 7.69 and 102.
For the molecule B6, the Bottom was -0.361 and the Top was found to be 97.3.

The target of the next assay is T1, human OX40 protein (Sino Biological, …). Description: SPR (BIACORE T200), antibody captured on protein A chip, human OX40 as analyte, 1:1 model. The procedure: as §4
As to B4, the affinity, expressed as Kd, was 2.4 nM and the koff is 5.63e-05 s⁻¹.
With B8, the affinity, expressed as Kd, was 24.4 nM; the koff amounted to 0.00167 s⁻¹; the kon stood at 68300 M⁻¹ s⁻¹.
Turning to B2, the affinity, expressed as Kd, was 1.24 nM and the koff is 4.17e-05 s⁻¹.
Turning to B1, binding was characterised by a dissociation constant (Kd) of 122 nM and the koff came to 0.00238 s⁻¹.
In the same order, the values of B5 are 2.05 nM and 4.13e-05 s⁻¹.
B6: the Kd came out at 19.9 nM and the koff worked out at 0.000203 s⁻¹.

Another assay addresses T4, cynomolgus monkey OX40 (R&D, Cat. 10311-OX) (cynomolgus monkey).
T4 construct: Bought protein; construct not described; also called Cynomolgus monkey OX40 antigen; Cyno OX40
Description: ELISA, cynomolgus monkey OX40 coated at 0.5 ug/ml, serially diluted antibody, goat anti-human Fab secondary antibody, O.D. 450 nm. The procedure:
as §3
For the molecule B4, the concentration for a half-maximal effect (EC50 (read off the curve)) was around 0.02 nM.
On to B8, for which the “EC50 (read off the curve)” value is around 0.02 nM.
On the same count and under the same terms, in the case of B2 it was around 0.02 nM; in that of B1, around 0.08 nM.
Same read-out and setting: in the case of B5 it was around 0.2 nM.
